# Measured values: article PMC12087662
# Target: ATP6V1D (UniProt Q9Y5K8)
# Assay: in vitro binding, anti-Flag pull-down
# Conditions: reference: wild-type ATP6V1B2-Flag; sites Y68
substance,measurement,value
ATP6V1B2 (from UniProt P21281) ATP6V1B2(Y68F)-Flag,binding against the reference,weaker
